This note sets out measurements from a protein production outcome set (Wang et al. 2014).
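Note: failed if final PepcDB status was selected cloned or expressed and not failed if soluble or beyond.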

This data set is described as follows: label from the status in PepcDB records.
On to “GQSEDGLSVPKPLGIVEPWQMWLQRWVPGQPATELLITRPDLPEKIAALAHKIHSHSVPTTKTHTIATELQILGDRLREFSHQQPQWQTQIQHFIAQSEQLGEVLNKYPRPTTTIHRDFYPDQILVDGNHLWLVDLDLYCKGDPAVDLGNFIAHMTEYSLRTWG”, for which the protein production entry was “failed”. The value for “MNHPIVGLIAAVVLAIGVVELHLWLPAIQSVSPLLISIGVGILVSHILPARCKEPLAPGLNIAKGSILRVAIVLYGFNITLQALSQVGIYGLFSAVTMVSVILFVGIWAGTKLFKLDKEQAILVAVGSAICGAAAVAAMEPIIKAKPHKVITAISTVVVFGTLSMLLMPLVFQFFDINEAQYGLWVGVSVHEVAQVVVAGDSVSSNAAHMAVLEKMLRVVLLVPVLLTFAVWMRQKSKGSDKESGDNKVSVPWFAFLFIGAIIINSLNWIPDDVTTAFTAAATYLLCIAMTALGMLTHISVIKQGGAKAFALAALLFVSLFITGYLLAQFA” was “failed”; that for “MTHEAMSPGEWKAKGGGLTIRYGFHASPFGLALVMITDRGLAGCAFADPGDERACFEDMAGRWPNADYVEDREATAPYAARIFEPAMWTADKPLRVVLEHHHHHH” was “not failed”. As for “MKIMTKALNRTTLGLALGLASSQLLAAGFALNEQSISGMGTGFAGRSSSADDASTVFGNPAGMSRIKREQISVGAAAVIAKTDIDNGRGTFGGSNDGDMVPVVGVPMGYYVKPIDDHWAFGLGVYVPFGLVTDYEKGFAGRYWGDKSHVQIVTFQPTVSYAFNDKVSIGFGPTINRIDGELTSAVPNRASLGTNDGKVKIKGDDTAIGFNAGILVQATDTTRLGLTYHSKVDYKLEGKTKVEGSGFGPFGGQKYDASLDISTPESVDFSITQQLDENWTVYAGSTWTRWSRLKDITVENSGVPTALASSIGTITEEQDWHDTWAHAIGASYKVNKEWTLRTGFSVDQSPTNNVNRSPRIPTGDRKIISFGAGWSPTDDLTIDVAYSYLREDETKIRDSSATKGSYSADYRNTAHGLGTSVTYRF”, the entry is “failed”; as for “MNAKEILVHSLRLLENGDARGWCDLFHPEGVLEFPYAPPGWKTRFEGRETIWAHMRLFPEHLTVRFTDVQFYETADPDLAIGEFHGDGVATVSGGKLAQDYISVLRTRDGQILLYRDFWNPLRHLEALGGVEAAAKIVQGA”, “not failed”.

In the case of “MKMSELEKMLKGEHFDGASAEIEALRSQAGRLKLEINQSLDEAERYALQRELFGHLGHKSCVQPPFHCEFGKTIRIGDHTFINMNVVMLDGAPITIGDHVLIGPSTQFYTASHSLDYRRRQAWETICKPIVIEDDVWIGGNVVINQGVTIGARSVVAANSVVNQDVPPDTLVGGTPARILRSLKDPAESMAE”, the protein production entry is given as “not failed”. The value for “MSQTDELTGTANRRFVFAKLALQVEQVSKGLEAPFCLCTLDIDFFKQINDRFGHKCGDAVLRDFVGIAHSVIRRVDCFGRIGGEEFMLILPRSSIAEGREIVERLLQKVRLSRPLSEFPDFSYSCSAGMTVFRMMENADDVFMRADQALYAAKEKGRDRLLAVTLEHHHHHH” was “failed”; that for “MPEVSFIICTRNRVAVLEACLKSVQAACRAHAGFAAELVVVDNGSSDRTAERLASIAAMSDIPFTPVSEPRRGLAAARNAGLRRARGRVLVFVDDDCAVHCDYLRDLERHYASGEQGLIRGGRVELGDPRDLPFTIKRSRVCERLTPDIHPGGFVLGCNMTMHRDVAARIGDFDERFGAGGPLRSAEDTDYLVRAVLLGIPVEYVPDMTIFHHHGRRDRKAIEKLHRDYSLGNGGLCLKHIRHAPWLLRHFYWAARGALRELAGGPAFDRDLDLSHRPIVGMNVLGAARYALLLLARRPQAEPARQDQQANAEAPLLEHHHHHH” was “failed”; that for “MVRLIKTETVISVLMGHFIKKLLFILLFVGVLIAPANAQNEKNMYSYKKIGNKYIVSINNHTEIVKALNAFCKEKGILSGSINGIGAIGELTLRFFNPKTKAYDDKTFREQMEISNLTGNISSMNEQVYLHLHITVGRSDYSALAGHLLSAIQNGAGEFVVEDYSERISRTYNPDLGLNIYDFERLEHHHHHH” was “failed”. As for “MNKQFIILYFNIFLVFLGIGLVVPVLPVYLKDLGLKGSDLGILVAVFALAQMIISPFGGTLADKLGKKLIICIGLGLFAISEFLFAASHTFSLLIVSRILGGFSAGMVMPGVTGMIADISVGRDKAKNFGYMSAIINSGFILGPGMGGFLAEFSHRLPFYVAGFSGCVALILSIALIKNPKNSTQDGFTQYQPELLSKINWKVFLTPIILTLVLAFGLSAFETLFPLYTADKAHYSPLDISFAITGGGIAGAIFQVFFFDKFMKHFKELTFITYALLYSAIILLALTFVHSYWSIMIISFIVFIGFDMIRPAITNYFSNIAGNRQGFAGGLNSTFTSMGNFIGPLVAGTLYDINFEFPLYMSVLVMVLGMFVIFIEKMIRSRFSNI”, the entry is “failed”; as for “MESMQDLWTLKYRAETLEGMLGNEHAVRTLSELLQSGTLPHLIFYGPENSGKTTASLALARELYGETWKNNFVYFNASDFFDQGKRYLVRDKRFVRILGTDDPKKIYKSVIDIFKEVVNEYAGMASIDADYKIIYIDNAESLSSDAQHALRRIMEKYSSTCRFILSTTRPSKLISPLRSRGLQVFFAYVPDSLLKTHLERIALAEKLKLSDGALDAVLYLAKGNVARAVQTLQLAALRSEGAEITEEIVYEATMKGRDETIDELLEAALAGDFARGRQLIDGMIIEKGLSGTDIFEGLSEALIDSGETDADIARLIVSISEADARLTDATSERIQLEKLISTFS”, “failed”; as for “MLFSIRNFNQGVIMAGWFELSKSSDNQFRFVLKAGNGETILTSELYTSKASAEKGIASVRSNSPQEERYEKKTASNGKFYFNLKAANHQIIGSSQMYATAQSRETGIASVKANGTSQTVKDNT”, “failed”. The value for “MTMRRVKGGLVQAVRVARGGAVAWLSLCMLMVGGQALAQQAITAPASNAVERVEQASTGESTVVTVTLKDTPAQKPVEFSTQQPARIAIDFFGTAFAQGRANYQYGGKLLRAASVVQIGDRTRVVLDLARQSQYKSEIRGNQYVLTLGAAPTASATPVPTFAAPAPTAGVERPSVRNIDFRRGEELAGRVVVDLSTSNSAINIAQQGQNLVVDFAGATLPQSLRRRFDVSDFGTPVQAMRATDNGTGARLVIEPRGNWQYSSYQTDTQFVVEVRPTKEDPNKLISGPGYRGERMSLNFQNIDIRSLLQVFADFTNLNIVTSDSVTGTLSLRLKDVPWDQALQIVLDSKGLASRRNGNVLWVAPRNELATKEKAELESQQQVTELEPLRSQVFRLNYQRADDVRNMLLGTGGTAGGGAAASRILSKRGSLTSDARTNQLFVSDIPSKLEEVQAFLLKIDIPVRQVMIEARIVEADDTFSRNLGAKLGFAAKTNGAGYGNTYSNVVSPVTKDATWDNSAAVSLPANGINGVNAASVAVSLFNAGAGRFLALELSALEADGRGKIISSPRVVTADNIKALIEQGTEVPYQQATSSGATSVSFKKANLKLEVTPKITPDGNVFLDVDVNKDSLGTQTTNGFAINTKHVQTQVLVENGGTVVIGGIYTQNERTDVNKVPLLGDIPVLGNLFKSTAKTNDRTELLVFLTPRVLSDQLSLK” was “failed”. Take “GRDYVLSANLSLGMNKMKVDKLNGTDNVIWDQNNRWKSSYNDYCLKVGDQVGLIYGFVYDGLYSMDEFYFDPTNNLQAVPWGSTAAENGTSKDAPIMDADGVEHPKTIINQISGDSNSGIATLPGKVKFKDLNGDGYITEDDRTVIGNTNPKVQGGFGLSGQWKGFDFAMNFNFMLDFDVNNATAYQLSSSESNKNKFYNVLSTFADKGWRYTRDGDGECLYKCYYIDGSLDMYRELNEGRTLWNPTDVTKKITHSYFIEDGSFLRCQDLTVGYTLPGNLTSKWGISKARFYVSASNLFIITGYSGYDPEVDIQTGLTCGMDYNRYPRSRSFVLGTNITF”: the protein production entry is “failed”. As for “MCAEFVERRLAAILAADVVGYSRLLEANEEETLNALRQHRRELFDPAVAIHGGHIIKVMGDGFLVEFGSVLSAARCAVEIQRGMLERNIGIPGDRHFAFRIGLNLGDIVFDEDDFHGDGINVAVRLQALAAPGGIACSAAVRHEVANKLDLGFADQGAMTVKNISRPVHVYFADWGNAPSSEEVPLTAGGHTRAPVNKPSVAVLPFANISNDPEQDFFSDGITEDLITDLSNVSGLFVLSRNTVFTWKGRSENLQRIAAELGVAYIVEGSVRKAGNQVRINAELIEAASDGHVWAARYDRDLTDIFEMQDEIVKAIVGQLKVKLLPEEKRAIEQAPTESVEAYTHFLRGREYYHIASRSNHLMARQSFARAIELDPGYARAYAGIAVCDARLRSQFGAEIPVEDILANTATALVIDPNLAEAYAAKGFALAVAGNRTEAVSAFAQALSLDANCHEANRYYAEFCVTEGQFELAATHFQRAMEIKPADYGAPIMLVNVLRSLGQIDKASSYARIALKRAEEELRLHPENANVACLGATALAFLGVRDTALEWLARSLATDPDDINIQYNAACTYALLGEIDRAIDLLEVWMPQVGIEMRLWFKNDSDLDPIRSHPRYLKLVSLSE”, the entry is “failed”. “MADRVIRADAKGVMRVEDGQAYNEAGQRLDDHALIPPEDANEDQARLNAQLAARDAAGLIVDLHNRGIDRHLWEQNEDAIGVERHNRGVDRHQPQIPAAIPLAAEPRRTLGDFNRPGMFYANRSAIVPPPYQRNDYESHLFYYITLHI”: the protein production result is reported as “failed”.

As for “MLAAGEGKRMGACKPLLPLGASTVLAHVAKTLLPAINGPLVVVTGHHGDAVTAEALRLSLETAENTTPQDGMFSSVRTGIAHIVGRVDGVLVLPADIPFVRTATCALVVEAFRRHRAAVTYPTLCGERGHPPLLDADTMRAVLASSGDGGLRGVLLALERQGGTTHDVAVADEGIVTDMDTPADHAQLVARHPLRHIPTPREREALLEMAGTPARVRAHCRMVARAALAMAAHLEATRRGFISPFARQSAPHGISTSGAHAEPRSVPASTTTHAVHAEGNTTLPHTATAHVACPPPDVTTGPMPTCQPGHMPDHMPGTARDAAQQAPAATASPQRLDRPLIHAAATLHDICKGTQRHEAAGGALLTRHGFPEVGSIIAAHRDIAPQAGPEIDEAALVMLADKYVRGVSLIPVEERFDERLREWAHRPDVACDIAARKARVLMVRDLFESETATELFPLLQRKVRRGTFLEHHHHHH”, the protein production entry is given as “failed”. The value for “MIKGNKMASFSQVSFSIPQRVIHWAMALLIFFNLLFPDAMAHAYRLMRRGETLTPDQISSANIHAYVGFAILLLAVLRLCLRFFQGVPPHPAEEPRASQIAAKAAHFTFYVLFFILPLSGIAAYYFGIATAGELHSGPFKAVMWVLIAGHVAAVLVHQFYWRTNVLKRMTHG” was “failed”; that for “MTLAACMQEADQLQHWREKCWRPFFRVDEEILNIHNEQLGINEDHLHGAQSIHVASNIRARKVFEFPYLQTSMKPEDAGVDAILSKFNIMIYSYKDAAYPFRMVPPIVYAHLAILRVNAGDLTSSDTWRLYM” was “failed”. As for “MSLASNKKYTFACLLPKHLEGEYWTDVQKGIREAVTTYSDFNISANITHYDPYDYNSFVATSQAVIEEQPDGVMFAPTVPQYTKGFTDALNELGIPYIYIDSQIKDAPPLAFFGQNSHQSGYFAARMLMLLAVNDREIVIFRKIHEGVIGSNQQESREIGFRQYMQEHHPACNILELNLHADLNIEDSRMLDDFFREHPDVKHGITFNSKVYIIGEYLQQRRKSDFSLIGYDLLERNVTCLKEGTVSFLIAQQPELQGFNSIKTLCDHLIFRKEVACTNYMPIDLLTKENIDYYHSEGHHHHHH”, the entry is “not failed”. Turning to “MSLTMVSEVQPVSPASLDAPLENAVEIIETVISSLHQGDAPLVGQTDSGKIWMFRYGSAEVFVQLSGHTEEDFLTIWSPVLPLPVADELALYRKLLTLNWLTTFEAHFAIAEEQVQVVASRTLGGITAGEISRLITIVATLADDYDDALRAEFKGEGHHHHHH”, the protein production result is on record as “not failed”.
